In patent US20250154240A1, “ANTI-HUMAN CXCL1 ANTIBODY” (CHIOME BIOSCIENCE INC., priority 2022, published 2025):

T1: human CXCL2 (Homo sapiens, UniProt P19875)
T1 sequence (P19875 35-107): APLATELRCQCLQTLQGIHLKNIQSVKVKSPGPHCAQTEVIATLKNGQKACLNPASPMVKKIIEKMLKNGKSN

T2: human CXCL5 (Homo sapiens, UniProt P42830)
T2 sequence (P42830 37-114): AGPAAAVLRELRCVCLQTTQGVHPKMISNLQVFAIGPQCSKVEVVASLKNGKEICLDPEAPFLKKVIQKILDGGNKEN


Assays:
CXCR2-expressing cells = assay: In vivo migration inhibitory activity test on CXCR2-expressing cells, OCUM-12 orthotopic transplantation (prevention model); parameters: species or system mouse; settings: for Migration of CXCR2-expressing cells (CXCR2-positive cells per unit area in gastric tumor sections): 20 mg/kg intraperitoneally twice a week, compared to PBS or mouse IgG1
Text: (§1) The stomachs after measurement of the tumor size in [3-1] above were excised and fixed overnight at room temperature with a 10% neutral buffered formalin solution (Wako Pure Chemical Industries, Ltd., Japan), followed by replacement with PBS. Then, paraffin embedding and section preparation were outsourced to Applied Medical Research Laboratory, Japan. The prepared gastric tumor sections were immunohistologically stained with an anti-CXCR2 antibody to evaluate in vivo CXCR2 cell migration inhibitory activity. The sections were deparaffinized and rehydrated, and then treated to inactivate endogenous peroxidase. After antigen activation treatment, the sections were blocked with PBS containing 2% skimmed milk and 0.1% Tween-20, and reacted overnight at 4° C. with an anti-CXCR2 antibody (Biorbyt) as a primary antibody, which had been diluted to 0.3 μg/mL with the blocking solution. After washing with PBS containing 0.1% Tween-20, the sections were reacted at room temperature for 1 hour with an HRP-labeled goat anti-rabbit IgG antibody (Abcam) as a secondary antibody. After washing with a washing solution, a simple stain DAB solution (5052, Nichirei Corporation, Japan) was used to cause color development. After images of the stained tissues were captured with an Explore (Olympus Corporation, Japan), imaging software CellSens (Olympus Corporation, Japan) was used to calculate CXCR2-positive cells per unit area.
Navarixin is among small molecular compounds that act on CXCR2 and inhibit CXCL1-CXCR2 signaling. […] Then, using a model with OCUM-12 orthotopic transplantation, the migration inhibition of CXCR2-expressing cells and antitumor activity were evaluated in vivo for Navarixin. As a vehicle, ultrapure water containing 20% 2-hydroxypropyl-β-cyclodextrin (FUJIFILM Wako Pure Chemical Corporation, Japan) was used. Navarixin (MedChemExpress) was dissolved in ultrapure water containing 20% 2-hydroxypropyl-β-cyclodextrin, and orally administered at a dose of 100 mg/kg/day in a schedule of once a day for 5 consecutive days, followed by a 2-day withdrawal.
as §1, with “after measurement were excised” for “after measurement of the tumor size in [3-1] above were excised”, “and 0.1% Tween-20 (hereinafter referred to as the blocking solution), and reacted” for “and 0.1% Tween-20, and reacted”, “been diluted 1667-fold with the” for “been diluted to 0.3 μg/mL with the”, “to calculate positive cells per” for “to calculate CXCR2-positive cells per”
The dose-response relationship between antibody dose and in vivo antitumor activity or CXCR2 migration inhibitory activity was evaluated in a xenograft prevention model with OCUM-12 orthotopic transplantation. A prevention model is a model designed to start antibody administration from the day following tumor transplantation. […]

human CXCL2 = biological target: T1, human CXCL2; assay: Binding to human CXCL2
human CXCL5 = biological target: T2, human CXCL5; assay: Binding to human CXCL5
[1] = tested on: OCUM-2MLN gastric cancer cell line; assay: Efficacy evaluation in a model with OCUM-2MLN orthotopic transplantation; type: in vivo, mouse; settings: 20 mg/kg intraperitoneally twice a week, 3 weeks, compared to PBS control
Description: Among the candidate antibodies, 3 types of antibodies (4A-2F7, 5A-5E11 and 028-8-12) were evaluated for their in vivo antitumor activity in a xenograft model with OCUM-2MLN orthotopic transplantation. Procedures for the evaluation are shown below.
For use as mice, female nude mice (BALB/cAJcl-nu/nu) at 5 to 6 weeks of age were purchased from Charles River Japan, Inc. As human cancer cells, a gastric cancer cell line, OCUM-2MLN, was used.
OCUM-2MLN cells were cultured in D-MEM medium (FUJIFILM Wako Pure Chemical Corporation, Japan) supplemented with 10% fetal bovine serum (FBS; NICHIREI BIOSCIENCE), 1/100 volumes of a penicillin-streptomycin mixture (FUJIFILM Wako Pure Chemical Corporation, Japan) and 1/100 volumes of a sodium pyruvate solution (SIGMA-ALDRICH). The cells to be transplanted were detached with a 0.05 w/v % trypsin/0.53 mmol/L EDTA 4Na solution (FUJIFILM Wako Pure Chemical Corporation, Japan) and washed with PBS, and 1× 10^6 cells per mouse were transplanted into the gastric wall of each mouse. […] After 3 weeks had passed from the transplantation, the mice were sacrificed, and the short- and long-axis diameters of tumors formed in their gastric walls were each measured with a caliper. The tumor size was calculated according to the following: short-axis diameter (mm)×long-axis diameter (mm).

| Molecule | Binding to human CXCL2 (human CXCL2) | Binding to human CXCL5 (human CXCL5) | Migration of CXCR2-expressing cells (positive cells per unit area) (CXCR2-expressing cells; 400 μg/head intraperitoneally twice a week, 3 weeks, compared to hIgG1 antibody) | Dose at which the migration suppressive effect tended to reach a plateau (CXCR2-expressing cells; prevention model) [μg/head] | Migration of CXCR2-expressing cells (CXCR2-positive cells per unit area in gastric tumor sections) (CXCR2-expressing cells; 3 weeks) | Antitumor activity (tumor growth, tumor size) [1] |
| --- | --- | --- | --- | --- | --- | --- |
| Hu5A-5E11: humanized antibody VH1/VL1; VH SEQ ID NO: 76, VL SEQ ID NO: 78 (antibody, V domains shown) VH: QVQLVQSGAEVKKPGSSVKVSCKASGYAFSDYWMNWVRQAPGQGLEWIGQIYPGSGDTNYNAKFKGKGTITADKSTSTAYMELSSLRSEDTAVYYCARERDYDVAMDYWGQGTTVTVSS VL: DIQMTQSPSSLSASVGDRVTITCKASQDINKYIAWFQQKPGKAPKLVIHYTSILQPGVPSRFSGSGSGTDYTFTISSLQPEDIATYYCLQYDNLPWTFGGGTKVEIK |  |  | significantly suppress the migration of CXCR2-expressing cells | ≥ 60 |  |  |
| 1A-7H10: mouse monoclonal anti-HuCXCL1 antibody clone; VH SEQ ID NO: 1, VL SEQ ID NO: 5 (antibody, listed as Mus musculus, V domains shown) VH: QVQLKESGPVLVAPSQSLSITCSVSGFSSTTYGVHWVRQPPGQGLEWLGVIWAGGSTNYNSALMSRLSISKDNSKSQVFLKMNSLQTDDTAMYYCATQYHYPFAYWGQGTLVTVSA VL: NIVMTQSPKSMSMSVGERVTLSCKASENVGIYVSWYQQKPEQSPKLMIYGASNRNTGVPDRFTGSGSATDFTLTISSVQAEDLADYYCGQSYSYPLTFGAGTKLELK | also bind |  |  |  | significantly suppress the migration of CXCR2-expressing cells |  |
| 4A-2F7: mouse monoclonal anti-HuCXCL1 antibody clone; VH SEQ ID NO: 9, VL SEQ ID NO: 13 (antibody, listed as Mus musculus, V domains shown) VH: QVTLKESGPGILKPSQTLSLTCSFSGFSLSTSGMGVDWIRQPSGKGLEWLAHIWWDDDKYYNPSLKSQLTISKDTSRNQVFLKITSVDTADTATYYCARSYGYDMDYYAMDYWGQGTSVTVSS VL: DIQMTQSPSSLSASLGERVSLTCRASQEISGYLSWLQQKPDGTIKRLIYAASTLDSGVPKRFSGSRSGSDYSLTISSLESEDFADYYCLQYASYPPWTFGGGTKLEIK | also bind | also bind |  |  | significantly suppress the migration of CXCR2-expressing cells | significantly suppress tumor growth |

Further lines, with some results ahead:

| Binding to human CXCL2 (human CXCL2) | Binding to human CXCL5 (human CXCL5) | Molecule | Migration of CXCR2-expressing cells (positive cells per unit area) (CXCR2-expressing cells; 400 μg/head intraperitoneally twice a week, 3 weeks, compared to hIgG1 antibody) | Dose at which the migration suppressive effect tended to reach a plateau (CXCR2-expressing cells; prevention model) [μg/head] | Migration of CXCR2-expressing cells (CXCR2-positive cells per unit area in gastric tumor sections) (CXCR2-expressing cells; 3 weeks) | Antitumor activity (tumor growth, tumor size) [1] |
| --- | --- | --- | --- | --- | --- | --- |
| also bind | also bind | 5A-5E11: mouse monoclonal anti-HuCXCL1 antibody clone; VH SEQ ID NO: 17, VL SEQ ID NO: 21 (antibody, listed as Mus musculus, V domains shown) VH: QVQLQQSGAELVRPGSSVKISCKASGYAFSDYWMNWVKQRPGQGLEWIGQIYPGDGDTNYNGKFKGKGTLTADKSSSTAYMQLNSLTSEDSAVYFCARERDYDVAMDYWGQGTSVTVSS VL: DIQMTQSPSSLSASLGGKVTITCKASQDINKYIAWFQHKPGKGPRLVIHYTSILQPGIPSRFSGVGSGRDYSFSIRNLEPEDIATYYCLQYDNLPWTFGGGTKLEIK |  |  | significantly suppress the migration of CXCR2-expressing cells | significantly suppress tumor growth |
| also bind |  | 028-8-12: human antibody against CXCL1 from the human ADLib technique; VH SEQ ID NO: 25, VL SEQ ID NO: 29 (antibody, listed as Gallus gallus, V domains shown) VH: EVQLLESGGGLVQPGGSLRLSCAASGFTFSELSMSWVRQAPGKGLEWVSAISGSGGSTYYADSVKGRFTISRDNSKNTLYLQMNSLRAEDTAVYYCAREGGRLEPYYYYYAMDVWGQGTPVTVSS VL: DIQMTQSPSSLSASVGDRVTITCRASQSISDNLHWYQQKPGKAPKLLIYDASNLESGVPSRFSGSGSGTDFTLTINSLQPEDFATYYCQQYYSTPLTFGQGTKLEIK |  |  | significantly suppress the migration of CXCR2-expressing cells |  |
